Data set [1] relates to cultured endothelial cells. Put plainly: Labeled glucosamine administered to cultured endothelial cells. The data set is classed as cell-based. The source says: Indeed, glucosamine can increase synthesis of two main constituents of the endothelial glycocalyx, namely heparan sulfate and hyaluronan. […] Thus, the addition and/or administration of glucosamine can support endothelial glycocalyx production by providing a (necessary and/or rate-limiting) component in the synthesis thereof. Accordingly, glucosamine can be or comprise a molecular precursor of endothelial glycocalyx.

Data set [2] concerns endothelial glycocalyx. The data set can be described thus: Exogenous labeled SOD administered to mice, localization. The note with it: orally and/or intravenously. The data set is classed as in vivo. An excerpt:
By so doing, the local concentration of SOD at the endothelial glycocalyx is increased, providing added or enhanced (site-directed) protection against oxygen radicals at the endothelial glycocalyx. Thus, in addition to (naturally) produced SOD, which may be synthesized and bound to the endothelium, exogenous or administered SOD can (directly) associate with (bind to) endothelial glycocalyx. Accordingly, introduction and/or administration of SOD can provide site-directed antioxidant activity at the endothelial glycocalyx.

Data set [3] can be described thus: Catalase administered to mice, concentration in blood vessels. The data set is classed as in vivo. The note with it: oral and/or intravenous administration. The source says: Thus, in addition to (naturally) produced […], which may be produced and secreted into the blood stream, exogenous or administered catalase can be absorbed into the blood stream and be available for oxidant scavenging at or adjacent to the endothelial glycocalyx (and SOD bound thereto). Accordingly, introduction and/or administration of catalase can also provide antioxidant activity in blood vessels and/or at the endothelial glycocalyx.

On to `N[C@H]1C(O)O[C@H](CO)[C@@H](O)[C@@H]1O` (stereo partly drawn) [glucosamine, Glucosamine], for which, in data set [1], the “incorporation of labeled glucosamine” value is recorded as “is incorporated in the glycocalyx”.
As to Superoxide dismutase [SOD], the “localization of exogenous labeled SOD” value in data set [2] was “co-localizes (binds (directly) to) the endothelial glycocalyx”.
As for catalase, the “catalase concentrations in blood vessels” value in data set [3] was “increases catalase concentrations in blood vessels”.

These data come from patent publication US9943572B2, “Synergistic glycocalyx treatment compositions and methods” (Microvascular Health Solutions, LLC, priority 2015, dated 2018).
